Measurements published in patent publication US6387643B1, “Human platelet heparanase polypeptides, polynucleotide molecules that encode them, and methods for the identification of compounds that alter heparanase activity” (Pharmacia and Upjohn Company, priority 1998, dated 2002).

What was measured:
platelets = conditions: 1 U/ml thrombin; cited from earlier work
^35S-HSPG (>70 K) = assay: Heparanase activity, Conventional Assay (degradation of 35S-HSPG, 30,000 MW cut-off filter); format: biochemical, mice
Description: The pH optimum of the purified heparanase was determined by conducting the assay described in Example 2 (the Conventional Assay) in the pH range of 3.5 to 8.0, using a citrate buffer (pH 3.5-6.0), citrate-phosphate buffer (pH 6.5-7.0), and phosphate buffer (pH 7.5-8). Heparanase was active between pH 5.0 and 8.0, with the optimum pH at 5.8.
^35S-HSPG (>70 K) was prepared from mice bearing a basement membrane tumor that overproduces HSPG (EHS tumor), using modifications of the method of Ledbetter et al. (Biochemistry 26: 988-995 (1987)). Briefly, the radiolabeled HSPG was prepared by injecting C57BL mice bearing the EHS tumor with sodium [^35S] sulfate (0.5 mCi/mouse) 18 h before harvesting the tumor. […]
^35S-HSPG was isolated from the Buffer B supernatant by sequential chromatography on anion exchange and gel filtration columns. […] Fractions were sampled for radioactivity, and those containing the ^35SO4 label that eluted from the DEAE-Sephacel between 0.4 M and 0.8 M NaCl were pooled. […] Fractions were sampled for radioactivity, and those containing the ^35SO4 label that elutes with a molecular weight 70 kDa were pooled. […]
Heparanase activity from platelets or column fractions was detected by its ability to digest the 70 kDa ^35S-HSPG to produce lower molecular weight products. not retained by a 30,000 MW cut-off membrane. […]

In the case of thrombin, the “heparanase activity released from platelets” value (platelets) is given as 100%.

B1: purified heparanase: Human platelet heparanase: non-covalently associated 56 kDa (residues 145-530) and 8 kDa (residues 23-96) polypeptides of SEQ ID NO:2 (protein)
chain: QDVVDLDFFTQEPLHLVSPSFLSVTIDANLATDPRFLILLGSPKLRTLARGLSPAYLRFGGTKTDFLIFDPKKESTFEERSYWQSQVNQDICKYGSIPPDVEEKLRLEWPYQEQLLLREHYQKKFKNSTYSRSSVDVLYTFANCSGLDLIFGLNALLRTADLQWNSSNAQLLLDYCSSKGYNISWELGNEPNSFLKKADIFINGSQLGEDFIQLHKLLRKSTFKNAKLYGPDVGQPRRKTAKMLKSFLKAGGEVIDSVTWHHYYLNGRTATKEDFLNPDVLDIFISSVQKVFQVVESTRPGKKVWLGETSSAYGGGAPLLSDTFAAGFMWLDKLGLSARMGIEVVMRQVFFGAGNYHLVDENFDPLPDYWLSLLFKKLVGTKVLMASVQGSKRRKLRVYLHCTNTDNPRYKEGDLTLYAINLHNVTKYLRLPYPFSNKQVDKYLLRPLGPHGLLSKSVQLNGLTLKMVDDQTLPPLMEKPLRPGSSLGLPAFSYSFFVIRNAKVAACI
modifications: two chains: residues 145-530 and 23-96
With B1 the “optimum pH of heparanase activity” value (^35S-HSPG (>70 K); pH range 3.5 to 8.0, citrate, citrate-phosphate and phosphate buffers) was 5.8.

B2: Pro-heparanase: 508 residue protein, amino acid residues 23 to 530 of SEQ ID NO: 2, precursor of heparanase (protein)
chain: B1 chain
For B2, the catalytic activity (^35S-HSPG (>70 K); before cleavage of the Glu96-Ser97 and Gln144-Lys145 bonds) was “not catalytically active”.
